Target: T1, GST-SMAD4 (full-length, WT) (human, UniProt Q13485 1-552)
T1 construct: SMAD4, human, Human ORFeome V8.1 clone; Gateway mammalian GST expression vector (Li et al., 2017); details in the Supplementary material; also called GST-tagged SMAD4 FL; GST-tagged SMAD4 WT; source: HEK293T, transfected, in lysate
T1 sequence (looked up): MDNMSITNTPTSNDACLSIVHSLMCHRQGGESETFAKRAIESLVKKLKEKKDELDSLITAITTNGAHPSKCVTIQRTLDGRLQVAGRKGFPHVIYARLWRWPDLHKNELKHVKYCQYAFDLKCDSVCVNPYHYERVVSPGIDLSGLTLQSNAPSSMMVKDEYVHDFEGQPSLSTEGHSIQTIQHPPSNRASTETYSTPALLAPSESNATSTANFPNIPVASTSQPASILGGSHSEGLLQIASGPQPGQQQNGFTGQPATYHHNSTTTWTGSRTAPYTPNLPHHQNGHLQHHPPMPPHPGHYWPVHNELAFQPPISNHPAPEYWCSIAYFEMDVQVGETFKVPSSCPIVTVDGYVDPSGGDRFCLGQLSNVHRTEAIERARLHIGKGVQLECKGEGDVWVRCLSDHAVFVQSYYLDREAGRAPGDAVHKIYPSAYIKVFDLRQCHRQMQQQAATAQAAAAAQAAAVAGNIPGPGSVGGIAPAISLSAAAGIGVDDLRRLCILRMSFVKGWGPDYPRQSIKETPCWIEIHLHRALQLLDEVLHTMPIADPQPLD
Test: FRET or BRET; TR-FRET of single pairs: GST-SMAD4 (WT, domain truncations, truncation mutants) with VF-tagged partners; signal as fold change over empty vector controls
Settings: partners not purified

B1: Venus-Flag-tagged NFATc1 (VF-NFATc1), full-length WT (natural protein, human, UniProt O95644-2 1-716, looked up)
chain: MPSTSFPVPSKFPLGPAAAVFGRGETLGPAPRAGGTMKSAEEEHYGYASSNVSPALPLPTAHSTLPAPCHNLQTSTPGIIPPADHPSGYGAALDGGPAGYFLSSGHTRPDGAPALESPRIEITSCLGLYHNNNQFFHDVEVEDVLPSSKRSPSTATLSLPSLEAYRDPSCLSPASSLSSRSCNSEASSYESNYSYPYASPQTSPWQSPCVSPKTTDPEEGFPRGLGACTLLGSPRHSPSTSPRASVTEESWLGARSSRPASPCNKRKYSLNGRQPPYSPHHSPTPSPHGSPRVSVTDDSWLGNTTQYTSSAIVAAINALTTDSSLDLGDGVPVKSRKTTLEQPPSVALKVEPVGEDLGSPPPPADFAPEDYSSFQHIRKGGFCDQYLAVPQHPYQWAKPKPLSPTSYMSPTLPALDWQLPSHSGPYELRIEVQPKSHHRAHYETEGSRGAVKASAGGHPIVQLHGYLENEPLMLQLFIGTADDRLLRPHAFYQVHRITGKTVSTTSHEAILSNTKVLEIPLLPENSMRAVIDCAGILKLRNSDIELRKGETDIGRKNTRVRLVFRVHVPQPSGRTLSLQVASNPIECSQRSAQELPLVEKQSTDSYPVVGGKKMVLSGHNFLQDSKVIFVEKAPDGHHVWEMEAKTDRDLCKPNSLVVEIPPFRNQRITSPVHVSFYVCNGKRKRSQYQRFTYLPANGNAIFLTVSREHERVGCFF
notes: NFATc1, human, Human ORFeome V8.1 clone; also called VF-tagged NFATc1 FL; VF-tagged NFATc1 WT; source: HEK293T, transfected, in lysate; in live cells for the BRET screen
Question: How did the “TR-FRET PPI signal, fold-of-change (FOC) over negative controls” value turn out when B1 was run?
Answer: Its value is greater than 3 fold.

— article PMC12831459, “Identification and characterization of a TGF-β-independent SMAD4–NFATc1–STAT3 regulatory axis” (Journal of Molecular Cell Biology, 2025)
